In IntAct's records for PubMed 29892012:

B1: Genetic suppressor element 1 (Homo sapiens), Q14687 (parent)
chain: MKGMSHEPKSPSLGMLSTATRTTATVNPLTPSPLNGALVPSGSPATSSALSAQAAPSSSFAAALRKLAKQAEEPRGSSLSSESSPVSSPATNHSSPASTPKRVPMGPIIVPPGGHSVPSTPPVVTIAPTKTVNGVWRSESRQDAGSRSSSGGRERLIVEPPLPQEKAGGPAIPSHLLSTPYPFGLSPSSVVQDSRFPPLNLQRPVHHVVPPSTVTEDYLRSFRPYHTTDDLRMSSLPPLGLDPATAAAYYHPSYLAPHPFPHPAFRMDDSYCLSALRSPFYPIPTPGSLPPLHPSAMHLHLSGVRYPPELSHSSLAALHSERMSGLSAERLQMDEELRREREREREREREREADREREKEREREREKEREQEKEREREKERERELERQREQRAREKELLAAKALEPSFLPVAELHGLRGHATEERGKPSEQLTPTRAEKLKDAGLQAPKPVQHPLHPVPTPHHTVPSLISNHGIFSLPSSSAATALLIQRTNEEEKWLARQRRLRQEKEDRQSQVSEFRQQVLEQHLDMGRPPVPAEAEHRPESTTRPGPNRHEPGGRDPPQHFGGPPPLISPKPQLHAAPTALWNPVSLMDNTLETRRAESHSLHSHPAAFEPSRQAAVPLVKVERVFCPEKAEEGPRKREPAPLDKYQPPPPPPREGGSLEHQPFLPGPGPFLAELEKSTQTILGQQRASLPQAATFGELSGPLKPGSPYRPPVPRAPDPAYIYDEFLQQRRRLVSKLDLEERRRREAQEKGYYYDLDDSYDESDEEEVRAHLRCVAEQPPLKLDTSSEKLEFLQLFGLTTQQQKEELVAQKRRKRRRMLRERSPSPPTIQSKRQTPSPRLALSTRYSPDEMNNSPNFEEKKKFLTIFNLTHISAEKRKDKERLVEMLRAMKQKALSAAVADSLTNSPRDSPAVSLSEPATQQASLDVEKPVGVAASLSDIPKAAEPGKLEQVRPQELSRVQELAPASGEKARLSEAPGGKKSLSMLHYIRGAAPKDIPVPLSHSTNGKSKPWEPFVAEEFAHQFHESVLQSTQKALQKHKGSVAVLSAEQNHKVDTSVHYNIPELQSSSRAPPPQHNGQQEPPTARKGPPTQELDRDSEEEEEEDDEDGEDEEEVPKRKWQGIEAVFEAYQEHIEEQNLERQVLQTQCRRLEARHYSLSLTAEQLSHSVAELRSQKQKMVSERERLQAELDHLRKCLALPAMHWPRGYLKGYPR
partner: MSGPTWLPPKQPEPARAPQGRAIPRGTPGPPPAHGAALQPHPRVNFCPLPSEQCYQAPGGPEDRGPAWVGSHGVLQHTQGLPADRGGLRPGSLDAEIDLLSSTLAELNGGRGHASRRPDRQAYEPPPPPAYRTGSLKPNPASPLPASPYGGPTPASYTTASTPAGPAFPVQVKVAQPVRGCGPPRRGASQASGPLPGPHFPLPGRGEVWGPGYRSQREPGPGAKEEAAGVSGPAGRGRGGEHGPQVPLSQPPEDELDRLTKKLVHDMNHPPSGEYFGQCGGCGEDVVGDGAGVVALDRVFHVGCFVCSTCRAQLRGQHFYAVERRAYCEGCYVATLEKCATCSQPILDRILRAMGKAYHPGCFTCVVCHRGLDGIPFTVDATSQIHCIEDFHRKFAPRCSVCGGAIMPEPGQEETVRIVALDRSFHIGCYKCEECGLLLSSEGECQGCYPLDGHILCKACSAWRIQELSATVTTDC
B2: Islet cell autoantigen 1 (Homo sapiens), Q05084 (parent)
chain: MSGHKCSYPWDLQDRYAQDKSVVNKMQQKYWETKQAFIKATGKKEDEHVVASDADLDAKLELFHSIQRTCLDLSKAIVLYQKRICFLSQEENELGKFLRSQGFQDKTRAGKMMQATGKALCFSSQQRLALRNPLCRFHQEVETFRHRAISDTWLTVNRMEQCRTEYRGALLWMKDVSQELDPDLYKQMEKFRKVQTQVRLAKKNFDKLKMDVCQKVDLLGASRCNLLSHMLATYQTTLLHFWEKTSHTMAAIHESFKGYQPYEFTTLKSLQDPMKKLVEKEEKKKINQQESTDAAVQEPSQLISLEEENQRKESSSFKTEDGKSILSALDKGSTHTACSGPIDELLDMKSEEGACLGPVAGTPEPEGADKDDLLLLSEIFNASSLEEGEFSKEWAAVFGDGQVKEPVPTMALGEPDPKAQTGSGFLPSQLLDQNMKDLQASLQEPAKAASDLTAWFSLFADLDPLSNPDAVGKTDKEHELLNA
B3: Disks large-associated protein 2 (Homo sapiens), Q9P1A6 (parent)
chain: MGTAQVLPGILQKHCCILPDRNTESQCTLCGEPEEEEAGDLVQPGISFPGPAEEDLDPQYSWSPTQHFNEERYSPAPRSMKGLSGSRTQPPLCSGHTCGLAPPEDCEHLHHGPDARPPYLLSPADSCPGGRHRCSPRSSVHSECVMMPVVLGDHVSSSTFPRMHYSSHYDTRDDCAVAHAGAKINRIPANLLDQFEKQLPLHRDGFHTLQYQRTSAAAEQRSESPGRIRHLVHSVQKLFTKSHSLEGSSKSNANGTKADGRADDHHHAHHAKHSKRSKSKERKPEGKPRPGMSSWWSSDDNLDSDSTYRTPSVLNRHHLGPVAHCYPDALQSPFGDLSLKTSKSNNDVKCSACEGLALTPDAKYLKRSSWSTLTVSQAKEAYRKSSLNLDKPLLHQDAKPALRPCHYLQVPQDEWGGYPTGGKDEEIPCRRMRSGSYIKAMGDEESGESDSSPKTSPKSAILPEPLLKSIGQRPLGEHQTQTYLQAASDVPVGHSLDPAANYNSPKFRSRNQSYMRAVSTLSQASCVSQVSEAEINGQFESVCESVFSEVESQAMDALDLPGCFRTRSHSYLRAIQAGYSQDDECIPMMTPSDITSTIRSTAAVSYTNYKKTPPPVPPRTTSKPLISVTAQSSTESTQDAYQDSRAQRMSPWPQDSRGLYNSTDSLDSNKAMNLALETAAAQRHLPESQSSSVRTSDKAILVSKAEELLKSRCSSIGIQDSEFPEHQPYPRSDVETATDSDTESRGLREYHSVGVQVEDEKRHGRFKRSNSVTAAVQADLELEGFPGHITTEDKGLQFGSSFQRHSEPSTPTQYSAVRTVRTQGLFSYREDYRTQVDTSTLPPPDPWLEPAIDTVETGRMSPCRRDGSWFLKLLHAETKRMEGWCKEMEREAEENDLSEEILGKIRSAVGSAQLLMSQKFQQFYWLCQQNMDPSAMPRPTSQDLAGYWDMLQLSIEDVSMKFDELQRLRLNDWKMMESPERKEERKVPPPIPKKPPKGKFPITREKSLDLPDRQRQEARRRLMAAKRAASFRQNSASERADSIEIYIPEAQTRL
partner: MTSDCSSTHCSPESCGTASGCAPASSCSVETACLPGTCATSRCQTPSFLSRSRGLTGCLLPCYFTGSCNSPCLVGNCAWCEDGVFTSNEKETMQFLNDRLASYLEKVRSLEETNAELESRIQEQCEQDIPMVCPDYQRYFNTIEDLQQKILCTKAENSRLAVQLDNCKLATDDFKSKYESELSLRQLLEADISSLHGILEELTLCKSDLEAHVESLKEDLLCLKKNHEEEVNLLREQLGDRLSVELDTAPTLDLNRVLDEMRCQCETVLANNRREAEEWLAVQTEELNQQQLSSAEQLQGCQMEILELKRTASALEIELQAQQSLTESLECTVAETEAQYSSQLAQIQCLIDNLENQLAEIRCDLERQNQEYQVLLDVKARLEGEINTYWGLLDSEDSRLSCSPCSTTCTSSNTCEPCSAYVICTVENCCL
B4: Glutaredoxin-3 (Homo sapiens), O76003 (parent)
chain: MAAGAAEAAVAAVEEVGSAGQFEELLRLKAKSLLVVHFWAPWAPQCAQMNEVMAELAKELPQVSFVKLEAEGVPEVSEKYEISSVPTFLFFKNSQKIDRLDGAHAPELTKKVQRHASSGSFLPSANEHLKEDLNLRLKKLTHAAPCMLFMKGTPQEPRCGFSKQMVEILHKHNIQFSSFDIFSDEEVRQGLKAYSSWPTYPQLYVSGELIGGLDIIKELEASEELDTICPKAPKLEERLKVLTNKASVMLFMKGNKQEAKCGFSKQILEILNSTGVEYETFDILEDEEVRQGLKAYSNWPTYPQLYVKGELVGGLDIVKELKENGELLPILRGEN
partner: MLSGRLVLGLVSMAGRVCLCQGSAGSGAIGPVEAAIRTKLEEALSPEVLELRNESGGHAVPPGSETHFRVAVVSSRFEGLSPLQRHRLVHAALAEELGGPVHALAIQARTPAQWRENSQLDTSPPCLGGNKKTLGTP
B5: Glutaredoxin-3 (Homo sapiens), O76003 (parent)
chain: B4 chain
partner: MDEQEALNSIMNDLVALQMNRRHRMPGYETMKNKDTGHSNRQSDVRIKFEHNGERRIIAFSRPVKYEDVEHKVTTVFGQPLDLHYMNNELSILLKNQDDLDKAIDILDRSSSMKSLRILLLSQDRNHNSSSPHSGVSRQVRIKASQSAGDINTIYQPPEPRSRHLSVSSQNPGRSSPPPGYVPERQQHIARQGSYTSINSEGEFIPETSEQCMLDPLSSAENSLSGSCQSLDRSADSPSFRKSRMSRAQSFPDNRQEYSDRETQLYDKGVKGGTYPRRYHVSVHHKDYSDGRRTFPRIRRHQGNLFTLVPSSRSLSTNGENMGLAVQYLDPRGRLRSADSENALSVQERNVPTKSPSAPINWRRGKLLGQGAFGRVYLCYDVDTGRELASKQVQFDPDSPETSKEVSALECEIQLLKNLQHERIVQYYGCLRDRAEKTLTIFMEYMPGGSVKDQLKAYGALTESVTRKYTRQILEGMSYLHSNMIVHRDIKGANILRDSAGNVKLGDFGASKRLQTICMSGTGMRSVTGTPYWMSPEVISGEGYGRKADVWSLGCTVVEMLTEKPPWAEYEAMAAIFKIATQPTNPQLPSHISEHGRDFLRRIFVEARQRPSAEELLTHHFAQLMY

Variants of: B1
Settings: with trip6_human TRIP6, Q15654

Variant	effect of a mutation on the interaction
R503Q	with no effect

Variants of: B2
Settings: with rab2a_human RAB2A

Variant	effect of a mutation on the interaction
Q443R	disrupting interaction strength

Variants of: B2
Settings: with rab2b_human RAB2B

Variant	effect of a mutation on the interaction
Q443R	disrupting interaction strength

Variants of: B3
Settings: with KRT40, Q6A162

Variant	effect of a mutation on the interaction
R818T	with no effect

Variants of: B4
Settings: with bola1_human BOLA1, Q9Y3E2

Variant	effect of a mutation on the interaction
P145A	with no effect

Variants of: B5
Settings: with m3k3_human MAP3K3, Q99759

Variant	effect of a mutation on the interaction
P145A	with no effect
